Experimental data reported in patent US20090136936A1.
Values joined by “and” are separate entries in the source; they are usually repeats but may differ in a detail not shown here. Equal entries are not always repeated. Where two headings read alike, the source gives them in different places. One block for each substance: values may come before it.

What was measured:
[1] = molecular target: Protein A-FITC (Staphylococcus aureus) (UniProt P38507); assay: flow cytometry (FL1-Height) of E. coli spheroplasts labelled with Protein A-FITC; no Fc expressed [panel a]
[2] = molecular target: PA-FITC (PA antigen of Bacillus anthracis) (Bacillus anthracis) (UniProt P13423)
[3] = molecular target: extracellular domain of glycosylated FcγRIIa (R&D systems), FITC-labeled (human) (UniProt P12318); assay: flow cytometry of spheroplasts displaying the Fc, labelled with FcγRIIa-FITC
[4] = molecular target: Protein A-FITC (Staphylococcus aureus) (UniProt P38507)
[5] = molecular target: Protein A-FITC (Staphylococcus aureus) (UniProt P38507); remark: listed apart in the source
[6] = molecular target: Protein A-FITC (Staphylococcus aureus) (UniProt P38507); assay: flow cytometry (FL1-Height) of E. coli spheroplasts labelled with Protein A-FITC; one plasmid, no cJun(Cys) anchor co-expressed [panel b]
[7] = molecular target: Protein A-FITC (Staphylococcus aureus) (UniProt P38507); assay: flow cytometry (FL1-Height) of E. coli spheroplasts labelled with Protein A-FITC; Fc-cFos(Cys) co-expressed with the inner-membrane anchor NlpA-cJun(Cys)-FLAG; the same histogram stands in both panels [panels a and b]
[8] = molecular target: Protein A-FITC (Staphylococcus aureus) (UniProt P38507); assay: flow cytometry (FL1-Height) of E. coli spheroplasts labelled with Protein A-FITC; one plasmid, no cJun anchor co-expressed [panel b]
[9] = molecular target: Protein A-FITC (Staphylococcus aureus) (UniProt P38507); assay: flow cytometry (FL1-Height) of E. coli spheroplasts labelled with Protein A-FITC; Fc-cFos co-expressed with the inner-membrane anchor NlpA-cJun-FLAG [panel a]
[10] = molecular target: Recombinant human FcγRI/CD64, extracellular domain, glycosylated (human) (UniProt P12314); assay: SPR (BIAcore 3000), FcγRIa immobilized on CM-5
[11] = molecular target: Protein A-FITC (Staphylococcus aureus) (UniProt P38507); assay: flow cytometry (FL1-Height) of spheroplasts labelled with Protein A-FITC; medium TB
[12] = molecular target: Protein A-FITC (Staphylococcus aureus) (UniProt P38507); assay: flow cytometry (FL1-Height) of E. coli spheroplasts labelled with Protein A-FITC; APEx displayed Fc [panel a]
[13] = molecular target: Protein A-FITC (Staphylococcus aureus) (UniProt P38507); assay: flow cytometry (FL1-Height) of spheroplasts labelled with Protein A-FITC; medium TB, 0.5M Trehalose
[14] = molecular target: Protein A-FITC (Staphylococcus aureus) (UniProt P38507); assay: flow cytometry (FL1-Height) of spheroplasts labelled with Protein A-FITC; medium 'TB, 0.5M Soribitol'
[15] = molecular target: Recombinant human FcγRI/CD64, extracellular domain, glycosylated (human) (UniProt P12314); assay: flow cytometry of spheroplasts displaying the Fc clone, labelled with FcγRIa-FITC; the value is repeated on D00019 and D00020

Chain of Recombinant human FcγRI/CD64, extracellular domain, glycosylated (human) (P12314 16-292): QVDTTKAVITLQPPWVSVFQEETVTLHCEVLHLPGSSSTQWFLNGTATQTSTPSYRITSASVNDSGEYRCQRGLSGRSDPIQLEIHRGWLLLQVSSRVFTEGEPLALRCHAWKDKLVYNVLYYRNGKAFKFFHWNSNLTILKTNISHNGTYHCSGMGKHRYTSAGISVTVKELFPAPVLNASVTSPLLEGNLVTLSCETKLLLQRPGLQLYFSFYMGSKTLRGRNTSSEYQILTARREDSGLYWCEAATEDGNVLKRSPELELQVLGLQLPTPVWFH
Chain of extracellular domain of glycosylated FcγRIIa (R&D systems), FITC-labeled (human) (P12318 34-217): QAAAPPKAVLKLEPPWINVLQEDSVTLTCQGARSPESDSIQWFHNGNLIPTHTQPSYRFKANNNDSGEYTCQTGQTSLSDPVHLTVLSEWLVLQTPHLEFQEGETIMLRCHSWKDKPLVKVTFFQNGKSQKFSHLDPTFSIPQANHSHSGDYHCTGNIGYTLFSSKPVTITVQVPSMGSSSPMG

Substance: NlpA-cJun(Cys)-FLAG
Mn (mean fluorescence intensity) [1]: 111

Substance: M18.1 humanized IgG1 (antibody)
Mn (mean fluorescence intensity) [2]: 164

Substance: 26-10 IgG1 (anti-digoxin) (antibody)
Mn (mean fluorescence intensity) [2]: 13.9

M (mean fluorescence intensity) [3]: 66.7
Substance: Fc5 (E382V, M428I), aglycosylated Fc mutant (from UniProt P0DOX5 223-449)

Substance: M18.1 humanized scAb
Mn (mean fluorescence intensity) [2]: 277

Substance: 26-10 scAb (anti-digoxin)
Mn (mean fluorescence intensity) [2]: 14.7

Substance: 26-10 scFv (anti-digoxin)
Mn (mean fluorescence intensity) [2]: 16.3

Substance: M18 scFv (PelB fused, anti-PA)
M (mean fluorescence intensity) [4]: 40 and 62.9 | M (mean fluorescence intensity) [5]: 43

Mn (mean fluorescence intensity) [6]: 879 | Mn (mean fluorescence intensity) [7]: 733
Substance: PelB-Fc-cFos(Cys)-His

Mn (mean fluorescence intensity) [8]: 837 | Mn (mean fluorescence intensity) [9]: 244
Substance: PelB-Fc-cFos-His

Substance: M18.1 humanized scFv
Mn (mean fluorescence intensity) [2]: 313

Kd [10]: 18 nM
Substance: commercially available glycosylated human IgG1 (antibody)

Mn (mean fluorescence intensity) [11]: 1080 | Mn (mean fluorescence intensity) [12]: 2410 | Mn (mean fluorescence intensity) [13]: 3130 | Mn (mean fluorescence intensity) [14]: 1290
Substance: NlpA-Fc-His

FACS mean value [15]: 391
Substance: Fc117 (E382V, M428I, Y436A), aglycosylated Fc mutant (from UniProt P0DOX5 223-449)
